{"source": "patent US20210269546A1", "key": {"[1]": {"biological_target": "human recombinant CD64 (Fc gamma receptor I), R&D Systems (human) (UniProt P12314)", "sequence (P12314 16-288 limits assumed)": "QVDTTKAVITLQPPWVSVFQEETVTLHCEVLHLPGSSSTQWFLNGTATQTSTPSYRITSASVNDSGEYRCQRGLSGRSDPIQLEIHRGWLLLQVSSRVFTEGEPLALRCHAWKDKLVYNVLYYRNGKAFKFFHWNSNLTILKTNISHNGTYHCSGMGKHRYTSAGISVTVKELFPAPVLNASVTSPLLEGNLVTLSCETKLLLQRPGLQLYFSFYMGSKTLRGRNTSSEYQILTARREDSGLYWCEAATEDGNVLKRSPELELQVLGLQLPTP", "assay": "SPR (Biacore T200), construct captured on Protein A, soluble CD64 as analyte"}, "[2]": {"biological_target": "FcγRIIIaV158 (on cells bearing the labeled receptor, TR-FRET) (UniProt P08637)", "sequence (P08637 17-254 F176V)": "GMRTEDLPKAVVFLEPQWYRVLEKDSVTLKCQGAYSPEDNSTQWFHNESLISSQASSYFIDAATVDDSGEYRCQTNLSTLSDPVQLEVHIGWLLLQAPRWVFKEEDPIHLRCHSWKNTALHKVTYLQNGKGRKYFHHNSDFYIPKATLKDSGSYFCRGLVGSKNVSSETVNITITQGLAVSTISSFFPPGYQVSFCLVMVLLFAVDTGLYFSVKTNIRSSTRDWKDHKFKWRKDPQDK", "assay": "TR-FRET competition (CisBio) on cells bearing the labeled receptor; competitor: labeled antibody"}, "[3]": {"biological_target": "FcγRIIaH131 (cell surface CD32a, cells bearing the labeled receptor, TR-FRET) (UniProt P12318)", "sequence (P12318 34-317)": "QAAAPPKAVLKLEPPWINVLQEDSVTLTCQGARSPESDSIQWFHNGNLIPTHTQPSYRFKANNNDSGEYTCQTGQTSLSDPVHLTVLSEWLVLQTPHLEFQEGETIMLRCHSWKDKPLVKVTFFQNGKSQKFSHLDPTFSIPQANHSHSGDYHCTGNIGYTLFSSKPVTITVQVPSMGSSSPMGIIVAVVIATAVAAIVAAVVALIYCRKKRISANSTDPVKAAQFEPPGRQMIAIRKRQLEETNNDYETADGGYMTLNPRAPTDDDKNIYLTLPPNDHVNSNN", "assay": "TR-FRET competition (CisBio) on cells bearing the labeled receptor; competitor: labeled antibody"}, "[4]": {"biological_target": "FcγRIIb (on cells bearing the labeled receptor, TR-FRET) (UniProt P31994)", "sequence (P31994 43-310 limits assumed)": "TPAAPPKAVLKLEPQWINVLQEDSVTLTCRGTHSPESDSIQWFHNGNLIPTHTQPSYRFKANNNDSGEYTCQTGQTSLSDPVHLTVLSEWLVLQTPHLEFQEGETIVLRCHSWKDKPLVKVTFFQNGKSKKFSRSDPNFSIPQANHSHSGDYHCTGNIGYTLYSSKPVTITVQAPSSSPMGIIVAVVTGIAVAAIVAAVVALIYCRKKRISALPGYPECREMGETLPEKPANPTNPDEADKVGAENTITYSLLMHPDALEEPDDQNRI", "assay": "TR-FRET competition (CisBio) on cells bearing the labeled receptor; competitor: labeled antibody"}}, "data": [{"substance": "anti-CD20 mAb (CDRs from Gazyva (obinutuzumab)) (antibody)", "values": [{"measurement": "CD64 Valency by SPR", "setting": "[1]", "result": 1.5}, {"measurement": "IC50", "setting": "[2]", "result": 0.428, "unit": "µM"}, {"measurement": "IC50", "setting": "[3]", "result": 1.27, "unit": "µM"}, {"measurement": "IC50", "setting": "[4]", "result": 3.29, "unit": "µM"}]}]}
